The text below walks through data of the supplement of paper PMC10567573.

B1: CSTF3 (parent)
chain: YVPEKVKKAEKKLEENPYDLDAWS
B2: ZNF263 (parent)
chain: RTHTGEKPYKCTLCGENFSHRSNL
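Also: lentivirally expressed fusions sorted by FACS into six bins by GFP to DsRed ratio, PSI derived from sequencing read proportions per bin multiplied by bin number.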

The variants in one series derive from B1. The series can be described thus: protein stability index of a GFP-peptide fusion (GPS, HEK-293T) (PSI 1-6); higher = more stable. To be noted: c terminus: a fixed tail appended.
In the case of YVPEKVKKAEKKLEENPYDLDATS [W23T], the protein stability index was 2.64.
Same read-out and setting: with YVPEKVKKAEKKLEENPYDLDACS [W23C] the figure was 2.38; with YVPEKVKKAEKKLEENPYDLDAAS [W23A], 1.81.
Take YVPEKVKKAEKKLEENPYDLDAHS [W23H]: the protein stability index worked out at 1.95.
Same read-out and setting: the same measure for YVPEKVKKAEKKLEENPYDLDAPS [W23P]: 3.22; for YVPEKVKKAEKKLEENPYDLDANS [W23N]: 3.51.
On the same count and under the same terms, the same measure for YVPEKVKKAEKKLEENPYDLDAMS [W23M]: 3.05; for YVPEKVKKAEKKLEENPYDLDAES [W23E]: 1.28.
Same read-out and setting: with YVPEKVKKAEKKLEENPYDLDAFS [W23F] the figure was 3.27; with YVPEKVKKAEKKLEENPYDLDALS [W23L], 2.93; with YVPEKVKKAEKKLEENPYDLDAKS [W23K], 1.84.
On to YVPEKVKKAEKKLEENPYDLDARS [W23R], for which the protein stability index stood at 2.81.
On the same count and under the same terms, with YVPEKVKKAEKKLEENPYDLDADS [W23D] the figure was 1.91; with YVPEKVKKAEKKLEENPYDLDAVS [W23V], 2.38; with YVPEKVKKAEKKLEENPYDLDASS [W23S], 2.6.
The same measure, in the same setting: with YVPEKVKKAEKKLEENPYDLDAGS [W23G] the figure was 3.81; with YVPEKVKKAEKKLEENPYDLDAYS [W23Y], 1.77.
Regarding YVPEKVKKAEKKLEENPYDLDAQS [W23Q], the protein stability index was found to be 1.79.
On the same count and under the same terms, with YVPEKVKKAEKKLEENPYDLDAIS [W23I] the figure was 2.37; with YVPEKVKKAEKKLEENPYDLDTWS [A22T], 1.88; with YVPEKVKKAEKKLEENPYDLDPWS [A22P], 2.47.
Same read-out and setting: with YVPEKVKKAEKKLEENPYDLDKWS [A22K] the figure was 1.36; with YVPEKVKKAEKKLEENPYDLDVWS [A22V], 3.55; with YVPEKVKKAEKKLEENPYDLDNWS [A22N], 2.26.
On the same count and under the same terms, with YVPEKVKKAEKKLEENPYDLDWWS [A22W] the figure was 2.73.
As for YVPEKVKKAEKKLEENPYDLDRWS [A22R], the protein stability index is 2.65.
On to YVPEKVKKAEKKLEENPYDLDYWS [A22Y], for which the protein stability index was 2.36.
Regarding YVPEKVKKAEKKLEENPYDLDIWS [A22I], the protein stability index turned out to be 2.39.
On the same count and under the same terms, with YVPEKVKKAEKKLEENPYDLDMWS [A22M] the figure was 2.48; with YVPEKVKKAEKKLEENPYDLDLWS [A22L], 3.05; with YVPEKVKKAEKKLEENPYDLDSWS [A22S], 2.38.
Same read-out and setting: the same measure for YVPEKVKKAEKKLEENPYDLDQWS [A22Q]: 2.98; for YVPEKVKKAEKKLEENPYDLDAWC [S24C]: 3.61; for YVPEKVKKAEKKLEENPYDLDAWY [S24Y]: 3.69.
On the same count and under the same terms, the same measure for YVPEKVKKAEKKLEENPYDLDAWP [S24P]: 2.56; for YVPEKVKKAEKKLEENPYDLDAWD [S24D]: 2.21.
With YVPEKVKKAEKKLEENPYDLDAWA [S24A], the protein stability index was 3.55.
Still for that read-out and setting: the same measure for YVPEKVKKAEKKLEENPYDLDAWR [S24R]: 2.02; for YVPEKVKKAEKKLEENPYDLDAWW [S24W]: 1.66.
Consider YVPEKVKKAEKKLEENPYDLDAWF [S24F], for which the protein stability index was determined as 2.83.
On the same count and under the same terms, the same measure for YVPEKVKKAEKKLEENPYDLDAWI [S24I]: 1.86; for YVPEKVKKAEKKLEENPYDLDAWH [S24H]: 1.95.
Regarding YVPEKVKKAEKKLEENPYDLDAWM [S24M], the protein stability index turned out to be 2.15.
Take YVPEKVKKAEKKLEENPYDLDAWK [S24K]: the protein stability index worked out at 2.79.
Regarding YVPEKVKKAEKKLEENPYDLDAWV [S24V], the protein stability index was found to be 2.85.
Take YVPEKVKKAEKKLEENPYDLDAWE [S24E]: the protein stability index was found to be 1.36.
The same measure, in the same setting: the same measure for YVPEKVKKAEKKLEENPYDLDAWL [S24L]: 3.1.
Still for that read-out and setting: the same measure for YVPEKVKKAEKKLEENPYDLDAWN [S24N]: 2.26; for YVPEKVKKAEKKLEENPYDLDAWQ [S24Q]: 2.23; for YVPEKVKKAEKKLEENPYDLDAWG [S24G]: 3.98.
On the same count and under the same terms, with YVPEKVKKAEKKLEENPYDLDAWT [S24T] the figure was 2.81.

The next series covers variants of B2. The series is described as above. To be noted: c terminus: a fixed tail appended.
On to RTCTGEKPYKCTLCGENFSHRSNL [H3C], for which the protein stability index is 1.61.
The same measure, in the same setting: the same measure for RTFTGEKPYKCTLCGENFSHRSNL [H3F]: 2.15; for RTATGEKPYKCTLCGENFSHRSNL [H3A]: 2.27.
The same measure, in the same setting: the same measure for RTDTGEKPYKCTLCGENFSHRSNL [H3D]: 2.06.
Same read-out and setting: with RTETGEKPYKCTLCGENFSHRSNL [H3E] the figure was 1.74; with RVHTGEKPYKCTLCGENFSHRSNL [T2V], 2.52.
Consider RGHTGEKPYKCTLCGENFSHRSNL [T2G], for which the protein stability index amounted to 1.74.
Still for that read-out and setting: with RSHTGEKPYKCTLCGENFSHRSNL [T2S] the figure was 2.1.
Still for that read-out and setting: the same measure for RMHTGEKPYKCTLCGENFSHRSNL [T2M]: 1.97.
The same measure, in the same setting: the same measure for RWHTGEKPYKCTLCGENFSHRSNL [T2W]: 2.35; for RHHTGEKPYKCTLCGENFSHRSNL [T2H]: 2.21.
As for REHTGEKPYKCTLCGENFSHRSNL [T2E], the protein stability index was 1.76.
The same measure, in the same setting: the same measure for RQHTGEKPYKCTLCGENFSHRSNL [T2Q]: 2.02; for RDHTGEKPYKCTLCGENFSHRSNL [T2D]: 2; for RKHTGEKPYKCTLCGENFSHRSNL [T2K]: 2.7.
The same measure, in the same setting: the same measure for RPHTGEKPYKCTLCGENFSHRSNL [T2P]: 2.34.
Still for that read-out and setting: the same measure for RLHTGEKPYKCTLCGENFSHRSNL [T2L]: 2.17; for RAHTGEKPYKCTLCGENFSHRSNL [T2A]: 2.02.
For the variant RRHTGEKPYKCTLCGENFSHRSNL [T2R], the protein stability index came out at 3.06.
Same read-out and setting: the same measure for RYHTGEKPYKCTLCGENFSHRSNL [T2Y]: 1.45.
On the same count and under the same terms, with RNHTGEKPYKCTLCGENFSHRSNL [T2N] the figure was 2.28.
The same measure, in the same setting: with RIHTGEKPYKCTLCGENFSHRSNL [T2I] the figure was 1.98; with RCHTGEKPYKCTLCGENFSHRSNL [T2C], 2.07.
As for RFHTGEKPYKCTLCGENFSHRSNL [T2F], the protein stability index was 1.73.
Same read-out and setting: the same measure for YTHTGEKPYKCTLCGENFSHRSNL [R1Y]: 2.17; for DTHTGEKPYKCTLCGENFSHRSNL [R1D]: 1.93; for STHTGEKPYKCTLCGENFSHRSNL [R1S]: 1.89.
For QTHTGEKPYKCTLCGENFSHRSNL [R1Q], the protein stability index worked out at 1.79.
Still for that read-out and setting: the same measure for ETHTGEKPYKCTLCGENFSHRSNL [R1E]: 2.13; for ATHTGEKPYKCTLCGENFSHRSNL [R1A]: 2.03.
Still for that read-out and setting: with ITHTGEKPYKCTLCGENFSHRSNL [R1I] the figure was 2.12; with KTHTGEKPYKCTLCGENFSHRSNL [R1K], 2.22.
Same read-out and setting: the same measure for CTHTGEKPYKCTLCGENFSHRSNL [R1C]: 3.43; for TTHTGEKPYKCTLCGENFSHRSNL [R1T]: 1.99; for HTHTGEKPYKCTLCGENFSHRSNL [R1H]: 3.08.
As for LTHTGEKPYKCTLCGENFSHRSNL [R1L], the protein stability index was 2.39.
On the same count and under the same terms, the same measure for WTHTGEKPYKCTLCGENFSHRSNL [R1W]: 1.99.
The same measure, in the same setting: the same measure for PTHTGEKPYKCTLCGENFSHRSNL [R1P]: 1.98.
Same read-out and setting: the same measure for NTHTGEKPYKCTLCGENFSHRSNL [R1N]: 1.69; for MTHTGEKPYKCTLCGENFSHRSNL [R1M]: 1.38.
With GTHTGEKPYKCTLCGENFSHRSNL [R1G], the protein stability index was determined as 1.8.
Still for that read-out and setting: with VTHTGEKPYKCTLCGENFSHRSNL [R1V] the figure was 2.27; with FTHTGEKPYKCTLCGENFSHRSNL [R1F], 2.41.
